Target: T1, RBD of the S protein of SARS-CoV-2 (Omicron BA.1) (SARS-CoV-2 Omicron BA.1, strain)
T1 construct: also called RBD (Omicron BA.1)
Assay: BLI; Octet RED96e; RBD (Omicron BA.1) immobilised on streptavidin (SA) biosensors; analyte 500-31.25 nM Nb67 or 100-3.125 nM Tr67 in 1x PBS, 0.02% Tween-20, 0.1% BSA; association 1 min, dissociation 3 min; 1:1 binding model
Details: both partners purified

B1: nanobody Nb67 (VHH)
VHH: EVQLVESGGGLVQTGGSLRLSCALSGYTFSIFPTAWFRQAPGKEREFVAGIRWNGSTRDYTEYADFVKGRFTISRDNAKNMVYLQMISLKPEDTALYYCAASDGVIDGTNANAYRYWGQGTQVTVSS
notes: also called monovalent Nb67
Binder B1 has a Kd of 15.2 nM.

Reference: paper PMC10858482, “Computational design and engineering of self-assembling multivalent microproteins with therapeutic potential against SARS-CoV-2” (Journal of Nanobiotechnology, 2024)
